{
  "source": "patent US20120328619A1",
  "about": "(published 2012)",
  "binders": {"B1": {"name": "CD123-specific scFv clone 43 (scFv)", "scFv": "MADYKDIVMTQSHKFMSTSVGDRVNITCKASQNVDSAVAWYQQKPGQSPKALIYSASYRYSGVPDRFTGRGSGTDFTLTISSVQAEDLAVYYCQQYYSTPWTFGGGTKLEIKRGGGGSGGGGSGGGGSGGGGSEVKLVESGGGLVQPGGSLSLSCAASGFTFTDYYMSWVRQPPGKALEWLALIRSKADGYTTEYSASVKGRFTLSRDDSQSILYLQMNALRPEDSATYYCARDAAYYSYYSPEGAMDYWGQGTSVTVSS", "notes": "Murine scFv from a phage display library, expressed in E. coli from pAK400, carries a hexahistidine tag"}, "B2": {"name": "single chain triplebody sctb [123×ds16×33] (other)", "chain": "MADYKDIVMTQSHKFMSTSVGDRVNITCKASQNVDSAVAWYQQKPGQSPKALIYSASYRYSGVPDRFTGRGSGTDFTLTISSVQAEDLAVYYCQQYYSTPWTFGGGTKLEIKRGGGGSGGGGSGGGGSGGGGSEVKLVESGGGLVQPGGSLSLSCAASGFTFTDYYMSWVRQPPGKALEWLALIRSKADGYTTEYSASVKGRFTLSRDDSQSILYLQMNALRPEDSATYYCARDAAYYSYYSPEGAMDYWGQGTSVTVSSASGAGGGGSGGGGSGGGGSGGGGSAAADYKDIVLTQSPASLAVSLGQRATISCKASQSVDFDGDSFMNWYQQKPGQPPKLLIYTTSNLESGIPARFSASGSGTDFTLNIHPVEEEDTATYYCQQSNEDPYTFGCGTKLELKRGGGGSGGGGSGGGGSGGGGSQVTLKESGPGILQPSQTLSLTCSFSGFSLRTSGMGVGWIRQPSGKCLEWLAHIWWDDDKRYNPALKSRLTISKDTSSNQVFLKIASVDTADTATYYCAQINPAWFAYWGQGTLVTVSRGGGGSGGGGSGGGGSGGGGSMADYKDIVMTQSHKFLLVSVGDRVSITCKASQDVSTAVAWYQQKPGQSPKLLIYSASYRYTGVPDRFIGSGSGTDFTLTISSVQAEDLADYFCQQHYSTPLTFGAGTKLEIKRGGGGSGGGGSGGGGSSGGGSEVQLKESGPGLVAPSQSLSITCTVSGFPLTSYGVSWVRQPPGKGLEWLGVIWGDGSTNYHSALISRLSISKDNSKSQVFLKLNNLQTDDTATYYCARDTYYPYYAMDYWGQGTSVTVSS", "notes": "also called CD123×dsCD16×CD33"}},
  "key": {"[1]": {"biological_target": "T1, human CD123 (alpha subunit of the interleukin-3 receptor) (human, UniProt P26951 19-378)", "T1 construct": "whole, on cells; also called IL-3Rα", "T1 sequence (P26951 19-378)": "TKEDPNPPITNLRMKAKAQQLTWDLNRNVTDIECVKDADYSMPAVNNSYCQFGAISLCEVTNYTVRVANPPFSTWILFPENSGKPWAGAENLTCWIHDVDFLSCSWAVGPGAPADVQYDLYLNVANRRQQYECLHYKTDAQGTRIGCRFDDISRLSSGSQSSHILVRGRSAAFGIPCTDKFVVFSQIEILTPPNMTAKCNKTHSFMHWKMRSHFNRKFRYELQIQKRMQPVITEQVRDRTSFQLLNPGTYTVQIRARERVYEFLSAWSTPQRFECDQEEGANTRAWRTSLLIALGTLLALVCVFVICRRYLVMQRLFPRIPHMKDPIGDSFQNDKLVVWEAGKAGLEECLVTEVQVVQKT", "assay": "calibrated flow cytometry"}, "CD33": {"biological_target": "T2, CD33 (human, UniProt P20138 18-364)", "T2 construct": "whole, on cells; also called CD33 on U937 cells", "T2 sequence (P20138 18-364)": "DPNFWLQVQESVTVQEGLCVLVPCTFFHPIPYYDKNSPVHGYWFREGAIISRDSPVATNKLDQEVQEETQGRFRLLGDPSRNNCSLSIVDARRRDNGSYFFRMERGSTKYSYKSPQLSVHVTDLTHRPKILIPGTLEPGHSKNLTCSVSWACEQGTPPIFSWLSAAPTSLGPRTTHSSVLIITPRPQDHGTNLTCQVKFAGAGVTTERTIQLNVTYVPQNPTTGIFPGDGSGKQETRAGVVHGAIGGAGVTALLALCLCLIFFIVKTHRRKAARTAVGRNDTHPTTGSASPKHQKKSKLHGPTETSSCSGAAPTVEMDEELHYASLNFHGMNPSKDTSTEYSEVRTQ", "assay": "calibrated flow cytometry on U937 cells", "method": "(§1) Immunofluorescence analysis was performed on a FACSCalibur instrument using CellQuest software (Becton Dickinson, Heidelberg, Germany) as described (Schwemmlein et al, 2006). Briefly, 1×10⁴ events were collected for each sample, and whole cells were analyzed using appropriate scatter gates to exclude cellular debris and aggregates. […] KD values were determined by calibrated flow cytometry, as described (Benedict at al, 1997). The highest mean fluorescence value was set to 100%, and all data points were normalized to this value. The experiments were repeated 6 times. The KD values were calculated using a nonlinear regression curve fit."}, "[2]": {"biological_target": "T1, human CD123 (alpha subunit of the …)", "assay": "calibrated flow cytometry on CD123-transfected 293 cells", "method": "as §1"}, "human CD16 (FcγRIII)": {"biological_target": "T3, human CD16 (FcγRIII) (human, UniProt P08637 17-254)", "T3 construct": "whole, on cells", "T3 sequence (P08637 17-254)": "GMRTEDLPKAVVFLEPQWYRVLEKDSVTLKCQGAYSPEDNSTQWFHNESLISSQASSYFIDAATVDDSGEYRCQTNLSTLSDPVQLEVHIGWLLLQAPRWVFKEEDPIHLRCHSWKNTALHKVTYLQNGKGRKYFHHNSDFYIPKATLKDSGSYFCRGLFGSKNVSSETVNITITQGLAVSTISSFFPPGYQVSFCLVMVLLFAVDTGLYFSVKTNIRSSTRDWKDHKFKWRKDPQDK", "assay": "calibrated flow cytometry on CD16-transfected CHO cells", "method": "as §1"}, "[3]": {"biological_target": "T4, CD123 and CD33 on double positive MOLM-13 cells (human, UniProt P26951 19-378; P20138 18-364)", "T4 construct": "whole, on cells; Two separate surface antigens on the same cell, not a complex; also called CD33/CD123", "T4 sequence (P26951 19-378, chain 1 of 2)": "as the sequence (P26951 19-378) above", "T4 sequence (P20138 18-364, chain 2 of 2)": "as the sequence (P20138 18-364) above", "assay": "calibrated flow cytometry on CD123 and CD33 double positive MOLM-13 cells (avidity)", "method": "as §1"}},
  "data": [
    {"binder": "B1", "values": [
      {"measurement": "Kd", "setting": "[1]", "result": 4.5, "unit": "nM"}
    ]},
    {"binder": "B2", "values": [
      {"measurement": "Kd", "setting": "CD33", "result": 17.8, "unit": "nM"},
      {"measurement": "Kd", "setting": "[2]", "result": 18.8, "unit": "nM"},
      {"measurement": "Kd", "setting": "human CD16 (FcγRIII)", "result": 21.7, "unit": "nM"},
      {"measurement": "Kd", "setting": "[3]", "result": 13.5, "unit": "nM"}
    ]}
  ]
}
